Source: patent publication US20190134214A1, “GLP-1 Receptor Ligand Moiety Conjugated Oligonucleotides and Uses Thereof” (published 2019)
Square brackets hold non-standard residues; d marks the D form. Ends that are not written are not given here. Aib = CC(C)(N)C(=O)O

B1: GLP-1 conjugated MALAT1 ASO (ISIS 816385) (peptide)
peptide: H[Aib]EGTFTSDVSSYLEEQAAKEFIAWLVKGGPSSGAPPPSC-NH2
modifications: not fully specified (residue 40); also: Cys40 disulfide via 3-mercaptopropionate linker to 5'-hexylamino ASO ISIS 786434
B2: GLP-1 peptide conjugated ASO targeted to FOXO1 (ION 913193) (peptide)
peptide: H[Aib]EGTFTSDVSSYLEEQAAKEFIAWLVKGGPSSGAPPPSC-NH2
modifications: not fully specified (residue 40); also: Cys40 disulfide via 3-mercaptopropionate linker to 5'-hexylamino ASO ION 913192
B3: 5'-GLP-1 peptide conjugated ASO targeted to MALAT1 (ION 962963) (peptide)
peptide: H[Aib]EGTFTSDVSSYLEEQAAKEFIAWLVKGGPSSGAPPPSC-NH2
modifications: not fully specified (residue 40); also: Cys40 disulfide to 3-mercaptopropionate linker

Columns and labels:
[1] = molecular target: FLAG-tagged GLP1R, stably expressed in HEK 293 cells (LVX-GLP1R cells)
[2] = molecular target: FLAG-tagged GLP1R, stably expressed in HEK 293 cells (LVX-GLP1R cells); remark: listed apart in the source
[3] = molecular target: human GLP-1 receptor (hGLP1R), stably expressed in HEK293 cells (hGLP1R-HEK) (human, UniProt P43220); assay: cell-based or functional assay
[4] = molecular target: GLP-1 receptor of mouse primary islets of Langerhans (mouse, UniProt O35659); assay: cell-based or functional assay

Binder | IC50 of MALAT-1 expression in GLP1R HEK cells [1] [nM] | IC50 of peptide-conjugated ASO activity (MALAT1 RNA) in LVX-GLP1R cells [2] [nM] | IC50 of inhibition of MALAT1 mRNA in hGLP1R-HEK cells [3] [nM] | Islet FOXO1 mRNA levels relative to control (RPLP0), percent of untreated, 96 hours, 1 µM [4] [%]
B1 | 260 | 350 | 20 | –
B2 | – | – | – | 25
B3 | 350 | – | – | –
